The target in this experiment is T1, His-tagged human calmodulin (recombinant) (human, UniProt P0DP24 1-149).
T1 construct: human calmodulin, CALM2 cDNA (OriGene SC125707) in a modified pET16b with a TEV site between the N-terminal polyhistidine tag and the protein; also called free calmodulin; recombinant calmodulin; not shown: polyhistidine, N-terminal, kept
Briefly: ELISA; competition: calmodulin immobilised, GST-DED1 held at its KD concentration, R4 peptide titrated; anti-GST AlexaFluor 488 detection. The following applies: both partners purified.

Experimental findings from publication PMC4631386, “Identification and Characterization of the Interaction Site between cFLIPL and Calmodulin” (PLoS ONE, 2015) are described below.

B1: DED1 R4 peptide (peptide)
peptide: VRRFDLLKRILK
notes: cFLIP DED1 region 4, V62-K73, twelve amino acids; also called region 4; source: synthetic peptide (Tufts University Core Facility)
A word on the IC50: it is the point on the concentration scale where inhibition reaches its midpoint. Take B1: the IC50 was found to be 63 µM.
